Test results as given in publication PMC9352680, “A comprehensive thermodynamic model for RNA binding by the Saccharomyces cerevisiae Pumilio protein PUF4”.

T1: PUF4 RNA-binding domain (Saccharomyces cerevisiae, UniProt P25339 537-888)
T1 sequence: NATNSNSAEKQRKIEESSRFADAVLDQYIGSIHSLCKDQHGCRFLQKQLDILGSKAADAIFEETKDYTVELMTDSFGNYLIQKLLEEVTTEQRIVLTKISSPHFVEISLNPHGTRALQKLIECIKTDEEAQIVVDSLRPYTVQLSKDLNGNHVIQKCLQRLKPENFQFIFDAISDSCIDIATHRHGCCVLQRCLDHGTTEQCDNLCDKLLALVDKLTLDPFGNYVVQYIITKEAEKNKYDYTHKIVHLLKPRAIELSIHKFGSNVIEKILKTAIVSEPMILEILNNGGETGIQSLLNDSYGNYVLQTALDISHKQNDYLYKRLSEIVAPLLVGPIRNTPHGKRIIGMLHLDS


Biological target: T1, PUF4 RNA-binding domain
Experiment: Mg; RNA-MaP; 20 mM Na-HEPES pH 7.4, 30 mM KOAc, 0.75 mM MgCl2, 0.1% Tween-20, 5% glycerol, 0.1 mg/mL BSA, 2 mM DTT; 25 C; 0.0125-409.6 nM protein
Conditions: tags: N-His6-TEV cleaved; C-SNAP kept, Cy3B-labelled; label: tethered on chip by stalled RNA polymerase

Binder	Kd [nM]
ACAAACAUUAUAUAUUACGACAAAC (ssRNA) [Id_ii_S3_P4E.3_K4.2_C4.2_[C-2A]_H4.2_A4.1_F4.1_T4.2_[G10C]_[T11G]]	21.4
ACAAACACACACUAUUACUACAAAC (ssRNA) [Id_ii_S3_P4E.4_K4.3_C4.2_[C-2A]_[T-1C]_H4.3_A4.1_F4.1_T4.2_[G10C]]	> 2300
UCUCUUUGUAUUGUUCUCUCUU (ssRNA) [Ib_S1_P5E.1_K5.1_C5.1_H5.1_A5.1_[A7G]_F5.1_[A10C]_T5.1]	45.8
ACAAACAUUAUAUAUUACUACAAAC (ssRNA) [Id_ii_S3_P4E.3_K4.2_C4.2_[C-2A]_H4.2_A4.1_F4.1_T4.2_[G10C]]	21.1
UCUCUUUGUAUUCUUCUCUCUU (ssRNA) [Ib_S1_P5E.1_K5.1_C5.1_H5.1_A5.1_[A7C]_F5.1_[A10C]_T5.1]	36.4
ACAAACUGACACUAUUAUGACAAAC (ssRNA) [Id_ii_S3_P4E.4_K4.3_C4.2_[C-2T]_[T-1G]_H4.3_A4.1_F4.1_T4.2_[G10T]_[T11G]]	> 2300
ACAAACCUUAUAUAUUAACACAAAC (ssRNA) [Id_ii_S3_P4E.3_K4.2_C4.2_H4.2_A4.1_F4.1_T4.2_[G10A]_[T11C]]	21.6
ACAAACGCACACUAUUACUACAAAC (ssRNA) [Id_ii_S3_P4E.4_K4.3_C4.2_[C-2G]_[T-1C]_H4.3_A4.1_F4.1_T4.2_[G10C]]	> 2300
ACAAACAAACACUAUUAAGACAAAC (ssRNA) [Id_ii_S3_P4E.4_K4.3_C4.2_[C-2A]_[T-1A]_H4.3_A4.1_F4.1_T4.2_[G10A]_[T11G]]	> 2300
ACAAACACACACUAUUAUUACAAAC (ssRNA) [Id_ii_S3_P4E.4_K4.3_C4.2_[C-2A]_[T-1C]_H4.3_A4.1_F4.1_T4.2_[G10T]]	> 2300
ACAAACAUUAUAUAUUAGAACAAAC (ssRNA) [Id_ii_S3_P4E.3_K4.2_C4.2_[C-2A]_H4.2_A4.1_F4.1_T4.2_[T11A]]	12.8
UCUCUUUGUAUUUUUCUCUCUU (ssRNA) [Ib_S1_P5E.1_K5.1_C5.1_H5.1_A5.1_[A7T]_F5.1_[A10C]_T5.1]	23.8
ACAAACGCACACUAUUAGAACAAAC (ssRNA) [Id_ii_S3_P4E.4_K4.3_C4.2_[C-2G]_[T-1C]_H4.3_A4.1_F4.1_T4.2_[T11A]]	> 2300
ACAAACAUACACUAUUAUAACAAAC (ssRNA) [Id_ii_S3_P4E.4_K4.3_C4.2_[C-2A]_H4.3_A4.1_F4.1_T4.2_[G10T]_[T11A]]	902
ACAAACAUUAUAUAUUACAACAAAC (ssRNA) [Id_ii_S3_P4E.3_K4.2_C4.2_[C-2A]_H4.2_A4.1_F4.1_T4.2_[G10C]_[T11A]]	27.7
ACAAACAGACACUAUUAGAACAAAC (ssRNA) [Id_ii_S3_P4E.4_K4.3_C4.2_[C-2A]_[T-1G]_H4.3_A4.1_F4.1_T4.2_[T11A]]	> 2300
ACAAACCCUAUAUAUUAAUACAAAC (ssRNA) [Id_ii_S3_P4E.3_K4.2_C4.2_[T-1C]_H4.2_A4.1_F4.1_T4.2_[G10A]]	14
ACAAACGUACACUAUUAACACAAAC (ssRNA) [Id_ii_S3_P4E.4_K4.3_C4.2_[C-2G]_H4.3_A4.1_F4.1_T4.2_[G10A]_[T11C]]	39.8
ACAAACACACACUAUUAACACAAAC (ssRNA) [Id_ii_S3_P4E.4_K4.3_C4.2_[C-2A]_[T-1C]_H4.3_A4.1_F4.1_T4.2_[G10A]_[T11C]]	> 2300
ACAAACAAACACUAUUACCACAAAC (ssRNA) [Id_ii_S3_P4E.4_K4.3_C4.2_[C-2A]_[T-1A]_H4.3_A4.1_F4.1_T4.2_[G10C]_[T11C]]	> 2300
ACAAACCCUAUAUAUUACUACAAAC (ssRNA) [Id_ii_S3_P4E.3_K4.2_C4.2_[T-1C]_H4.2_A4.1_F4.1_T4.2_[G10C]]	18.4
ACAAACUGACACUAUUACGACAAAC (ssRNA) [Id_ii_S3_P4E.4_K4.3_C4.2_[C-2T]_[T-1G]_H4.3_A4.1_F4.1_T4.2_[G10C]_[T11G]]	> 2300
ACAAACCAUAUAUAUUACCACAAAC (ssRNA) [Id_ii_S3_P4E.3_K4.2_C4.2_[T-1A]_H4.2_A4.1_F4.1_T4.2_[G10C]_[T11C]]	32.1
ACAAACCUUAUAUAUUACUACAAAC (ssRNA) [Id_ii_S3_P4E.3_K4.2_C4.2_H4.2_A4.1_F4.1_T4.2_[G10C]]	13.3
ACAAACUUACACUAUUAUAACAAAC (ssRNA) [Id_ii_S3_P4E.4_K4.3_C4.2_[C-2T]_H4.3_A4.1_F4.1_T4.2_[G10T]_[T11A]]	1640

Binder	Kd [nM]
ACAAACAUACACUAUUACCACAAAC (ssRNA) [Id_ii_S3_P4E.4_K4.3_C4.2_[C-2A]_H4.3_A4.1_F4.1_T4.2_[G10C]_[T11C]]	740
ACAAACACACACUAUUAGCACAAAC (ssRNA) [Id_ii_S3_P4E.4_K4.3_C4.2_[C-2A]_[T-1C]_H4.3_A4.1_F4.1_T4.2_[T11C]]	> 2300
ACAAACCCUAUAUAUUAUUACAAAC (ssRNA) [Id_ii_S3_P4E.3_K4.2_C4.2_[T-1C]_H4.2_A4.1_F4.1_T4.2_[G10T]]	13.3
ACAAACUUACACUAUUAAAACAAAC (ssRNA) [Id_ii_S3_P4E.4_K4.3_C4.2_[C-2T]_H4.3_A4.1_F4.1_T4.2_[G10A]_[T11A]]	> 2300
ACAAACCCUAUAUAUUACGACAAAC (ssRNA) [Id_ii_S3_P4E.3_K4.2_C4.2_[T-1C]_H4.2_A4.1_F4.1_T4.2_[G10C]_[T11G]]	16.6
ACAAACUUACACUAUUAGAACAAAC (ssRNA) [Id_ii_S3_P4E.4_K4.3_C4.2_[C-2T]_H4.3_A4.1_F4.1_T4.2_[T11A]]	> 2300
ACAAACAAACACUAUUAACACAAAC (ssRNA) [Id_ii_S3_P4E.4_K4.3_C4.2_[C-2A]_[T-1A]_H4.3_A4.1_F4.1_T4.2_[G10A]_[T11C]]	> 2300
ACAAACCCUAUAUAUUAACACAAAC (ssRNA) [Id_ii_S3_P4E.3_K4.2_C4.2_[T-1C]_H4.2_A4.1_F4.1_T4.2_[G10A]_[T11C]]	25.9
ACAAACUGACACUAUUAACACAAAC (ssRNA) [Id_ii_S3_P4E.4_K4.3_C4.2_[C-2T]_[T-1G]_H4.3_A4.1_F4.1_T4.2_[G10A]_[T11C]]	> 2300
ACAAACCUUAUAUAUUAAUACAAAC (ssRNA) [Id_ii_S3_P4E.3_K4.2_C4.2_H4.2_A4.1_F4.1_T4.2_[G10A]]	14
ACAAACUGACACUAUUAUCACAAAC (ssRNA) [Id_ii_S3_P4E.4_K4.3_C4.2_[C-2T]_[T-1G]_H4.3_A4.1_F4.1_T4.2_[G10T]_[T11C]]	> 2300
ACAAACUAACACUAUUACGACAAAC (ssRNA) [Id_ii_S3_P4E.4_K4.3_C4.2_[C-2T]_[T-1A]_H4.3_A4.1_F4.1_T4.2_[G10C]_[T11G]]	> 2300
ACAAACGUACACUAUUAGCACAAAC (ssRNA) [Id_ii_S3_P4E.4_K4.3_C4.2_[C-2G]_H4.3_A4.1_F4.1_T4.2_[T11C]]	70.4
ACAAACUCACACUAUUAAAACAAAC (ssRNA) [Id_ii_S3_P4E.4_K4.3_C4.2_[C-2T]_[T-1C]_H4.3_A4.1_F4.1_T4.2_[G10A]_[T11A]]	> 2300
ACAAACUCACACUAUUAACACAAAC (ssRNA) [Id_ii_S3_P4E.4_K4.3_C4.2_[C-2T]_[T-1C]_H4.3_A4.1_F4.1_T4.2_[G10A]_[T11C]]	> 2300
ACAAACAAACACUAUUAGCACAAAC (ssRNA) [Id_ii_S3_P4E.4_K4.3_C4.2_[C-2A]_[T-1A]_H4.3_A4.1_F4.1_T4.2_[T11C]]	> 2300
ACAAACAAACACUAUUAUGACAAAC (ssRNA) [Id_ii_S3_P4E.4_K4.3_C4.2_[C-2A]_[T-1A]_H4.3_A4.1_F4.1_T4.2_[G10T]_[T11G]]	> 2300
ACAAACCUUAUAUAUUAGUACAAAC (ssRNA) [If_S3_P4E.3_K4.2_C4.2_H4.2_A4.1_F4.1_T4.2]	3.71
ACAAACUCACACUAUUAAGACAAAC (ssRNA) [Id_ii_S3_P4E.4_K4.3_C4.2_[C-2T]_[T-1C]_H4.3_A4.1_F4.1_T4.2_[G10A]_[T11G]]	> 2300
ACAAACUCACACUAUUAUUACAAAC (ssRNA) [Id_ii_S3_P4E.4_K4.3_C4.2_[C-2T]_[T-1C]_H4.3_A4.1_F4.1_T4.2_[G10T]]	> 2300
UCUCUUUGUAUUUUUGUCUCUU (ssRNA) [Ib_S1_P5E.1_K5.1_C5.1_H5.1_A5.1_[A7T]_F5.1_[A10G]_T5.1]	13.7
ACAAACAUUAUAUAUUAUCACAAAC (ssRNA) [Id_ii_S3_P4E.3_K4.2_C4.2_[C-2A]_H4.2_A4.1_F4.1_T4.2_[G10T]_[T11C]]	19.4
ACAAACUCACACUAUUAGUACAAAC (ssRNA) [Id_ii_S3_P4E.4_K4.3_C4.2_[C-2T]_[T-1C]_H4.3_A4.1_F4.1_T4.2]	> 2300
ACAAACGUACACUAUUAUCACAAAC (ssRNA) [Id_ii_S3_P4E.4_K4.3_C4.2_[C-2G]_H4.3_A4.1_F4.1_T4.2_[G10T]_[T11C]]	39.9
